Experimental data reported in patent publication US20200190220A1 (FRED HUTCHINSON CANCER RESEARCH CENTER, published 2020).
Where no end group is shown, it is not given here. [ ]: non-standard residue; d: D form. The star is where a group is joined. FITC = O=C1OC2(c3ccc(O)cc3Oc3cc(O)ccc32)c2ccc(NC(=S)*)cc21; pY = N[C@@H](Cc1ccc(OP(=O)(O)O)cc1)C(=O)O; Ahx = NCCCCCC(=O)O

Target: T1, FITC-labeled peptide with the target sequence for the SH2 domain, EHIpYDEVAAD
T1 construct: also called N-Glu-His-Ile-pTyr-Asp-Glu-Val-Ala-Ala-Asp-C
T1 peptide: {FITC-Ahx}-EHI[pY]DEVAAD
Test: fluorescence anisotropy of FITC-labeled peptide against rising protein concentration (FIG. 16D)
Excerpt: FIGS. 16A-16E. Functional (peptide-binding) characterization of dTor_12×31L_SH2_single (12× scaffold containing 1 SH2 domain). FIG. 16A: SDS-PAGE electrophoretic analysis of purified dTor_12×31L SH2_single (corresponding to a monomeric cTRP containing 12 repeats, interrupted within repeat #3 by an SH2 domain derived from the human Nck2 adapter protein). FIG. 16B: ribbon diagram of the design of dTor_12×31L SH2_single, visualized from the top and the side of the designed protein repeats. FIG. 16C: Size Exclusion Chromatographic (SEC) separation and analysis of purified dTor_12×31L_SH2_single. Hydrodynamic radii of purified constructs, measured using dynamic light scattering (DLS), is also indicated. FIG. 16D: Binding of peptide corresponding to sequence by dTor_12×31L_SH2_single. Binding measured by monitoring Fluorescence Anisotropy signal from a labeled peptide as a function of increasing protein concentration. […]
Determination of ligand binding using Fluorescence Polarization (FP): Each protein construct was 2-fold serially diluted into twelve concentrations, from 23 μM to 0.011 μM, using FP Buffer (20 mM HEPES+150 mM KCl at pH7.4). […] Background was subtracted from raw perpendicular and parallel fluorescence intensity, which were then converted to fluorescence polarization (mP) by the following equation: […]

B1: dTor_12×31L (non-functionalized, lacking any inserted SH2 domain) (designed binder)
chain: GSSMASGISVEELLKLAKAAYYSGTTVEEAYKLALKLGISVEELLKLAEAAYYSGTTVEEAYKLALKLGISVEELLKLAKAAYYSGTTVEEAYKLALKLGISVEELLKLAKAAYYSGTTVEEAYKLALKLGISVEELLKLAEAAYYSGTTVEEAYKLALKLGISVEELLKLAKAAYYSGTTVEEAYKLALKLGISVEELLKLAKAAYYSGTTVEEAYKLALKLGISVEELLKLAEAAYYSGTTVEEAYKLALKLGISVEELLKLAKAAYYSGTTVEEAYKLALKLGISVEELLKLAKAAYYSGTTVEEAYKLALKLGISVEELLKLAEAAYYSGTTVEEAYKLALKLGISVEELLKLAKAAYYSGTTVEEAYKLALKLG
  binding result: no binding
